Values of other authors as cited in publication PMC7522120.

Target: Folate receptor alpha (Homo sapiens) (UniProt P15328)
Sequence (P15328 25-234): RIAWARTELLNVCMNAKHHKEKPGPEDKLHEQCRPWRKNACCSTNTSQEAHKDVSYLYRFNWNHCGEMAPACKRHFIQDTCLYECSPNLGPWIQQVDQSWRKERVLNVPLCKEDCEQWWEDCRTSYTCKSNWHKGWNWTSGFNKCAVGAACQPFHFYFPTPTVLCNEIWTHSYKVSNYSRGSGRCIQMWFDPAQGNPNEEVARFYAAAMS

farletuzumab
Kd: 2 nM
